The target of the assay is HIV-1 JR-FL envelope glycoprotein (gp120 and gp41) on GFP-labelled Env-pseudotyped particles (HIV-1 isolate JR-FL).

“tetrameric CD4-IgG2 molecule (PRO 542) (from UniProt P01730 26-396; P01730 26-396) (Fc fusion)” had an IC50 of inhibition of JR-FL infection of TZM-bl cells (luciferase), cell-cell transmission from infected PBMC against cell-free virus; the pair blocked is m1+m3 of 40 fold.

The values above are taken from publication PMC3320602.
